Data on one molecule can be found in patent publication US20070009927A1 (published 2007).

The test has as its target T1, Sizn1 bait (full-length Sizn1 coding sequence in pGBKT7) (mouse, UniProt Q9CZA5 1-402).
T1 construct: Yeast two-hybrid bait in AH109 cells; also called Sizn bait construct; Sizn1 as a bait; not shown: fusion partner supplied by vector pGBKT7 (Clontech)
The experiment in a line: yeast two-hybrid screen of an E11 mouse library.

T1 sequence (Q9CZA5 whole entry, the tested form may be a part): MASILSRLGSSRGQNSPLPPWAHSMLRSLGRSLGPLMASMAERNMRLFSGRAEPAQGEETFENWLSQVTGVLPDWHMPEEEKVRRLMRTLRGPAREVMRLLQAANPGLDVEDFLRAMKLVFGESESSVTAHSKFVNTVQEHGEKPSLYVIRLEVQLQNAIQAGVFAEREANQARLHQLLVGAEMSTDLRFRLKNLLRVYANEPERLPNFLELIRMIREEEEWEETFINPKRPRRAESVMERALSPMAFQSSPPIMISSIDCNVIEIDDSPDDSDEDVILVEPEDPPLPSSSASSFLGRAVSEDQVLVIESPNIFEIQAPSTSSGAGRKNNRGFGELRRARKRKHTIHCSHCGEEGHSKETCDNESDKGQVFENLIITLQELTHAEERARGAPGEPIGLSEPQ

B1: amino acids 382-495 of Smad6 corresponding to the MH2 domain of Smad6 (other, mouse, UniProt O35182 382-495, looked up)
chain: RRTRSKIGFGILLSKEPDGVWAYNRGEHPIFVNSPTLDAPGGRALVVRKVPPGYSIKVFDFERSGLLQHADAAHGPYDPHSVRISFAKGWGPCYSRQFITSCPCWLEILLNNHR
notes: Positive prey clone of the yeast two-hybrid screen; also called Smad6 MH2 domain; not shown: library fusion partner of the Matchmaker3 two-hybrid prey vector; not described
B1: the binding result is reported as “binds”.
